Experimental data: patent US20190218553, “VON WILLEBRAND FACTOR (VWF)-TARGETING AGENTS AND METHODS OF USING THE SAME” (DUKE UNIVERSITY, published 2019)

How the values were obtained:
[1] = target: T1, von Willebrand factor (VWF) (Homo sapiens, UniProt P04275 P04275:764-2813); assay: filter; Bmax 86%; 2 mM CaCl2, 37 C; conditions: Haematologic Technologies Inc, label: 5'-32P
Method: (§1) Affinity constants (Kd values) were determined using double-filter nitrocellulose filter binding assays (Rusconi et al, Thromb. Haemost. $4:841-848 (2000)). All binding studies were performed in binding buffer F (20 mM HEPES, pH 7.4, 150 mM NaCl, 2 mM CaCl₂, and 0.01% BSA) at 37° C. Human purified VWF (factor VIII free) was purchased from Haematologic Technologies Inc. (Essex Junction, Vt.) and used in the double-filter nitrocellulose filter binding assay to determine the Kd of the aptamers. Briefly, RNA were end-labeled at the 5′ end with T4 polynucleotide kinase (New England Biolabs, Beverly, Mass.) and [γ³²P] ATP (Amersham Pharmacia Biotech, Piscataway, N.J.) (Fitzwater and Polisky, Methods Enzymol. 267:275-301 (1996)). End-labeled RNA was diluted in binding buffer F, heat denatured at 65° C. for 5 minutes, and subsequently equilibrated at 37° C. Direct binding was performed by incubating trace ³²P-RNA with varying concentrations of VWF protein in binding buffer F at 37° C. for 5 min. The fraction of the nucleic acid-protein complex which bound to the nitrocellulose membrane was quantified with a phosphorimager (Molecular Dynamics, Sunnyvale, Calif.). Non-specific binding of the radiolabeled nucleic acid was subtracted out of the binding such that only specific binding remained (Wong and Lohman, Proc. Natl. Acad. Sci. USA 90:5428-5432 (1993)).

[2] = target: T1, von Willebrand factor (VWF); assay: filter; Bmax 58%; 2 mM CaCl2, 37 C; conditions: tags: factor VIII free, Haematologic Technologies Inc; label: 5'-32P
Method: as §1

[3] = target: T1, von Willebrand factor (VWF); assay: filter; Bmax 81%; 2 mM CaCl2, 37 C; conditions: tags: factor VIII free, Haematologic Technologies Inc; label: 5'-32P
Method: as §1

[4] = target: T1, von Willebrand factor (VWF); assay: filter; Bmax 78%; 2 mM CaCl2, 37 C; conditions: Haematologic Technologies Inc, label: 5'-32P
Method: as §1

[5] = target: T1, von Willebrand factor (VWF); assay: filter; Bmax 82%; 2 mM CaCl2, 37 C; conditions: Haematologic Technologies Inc, label: 5'-32P
Method: as §1

[6] = target: T1, von Willebrand factor (VWF); assay: filter; Bmax 80%; 2 mM CaCl2, 37 C; conditions: Haematologic Technologies Inc, label: 5'-32P
Method: as §1

[7] = tags: factor VIII free human purified VWF

ACGAACUGCCCUCGAUCGACGCACAGACGU (ssRNA, 2'-F U7,C9,C10,C11,U12,C20,C22,U30; ribo G8,A19; rest 2'-OMe; 3' idT) [T59 vrt25]
Kd [1, 7]: 76 nM

ACGAACUGCCCUCAGCAUUAUUGCUGACGCACAGACGU (ssRNA, 2'-F C and U; 2'-OH A and G; 3' idT) [T52]
Kd [2]: 16 nM

ACGAACUGCCCUCGAUCGACGCACAGACGU (ssRNA, mAfCrGmAmAmCfUrGfCfCfCfUmCmGmAmUmCmGrAfCrGfCrAmCmAmGmAfCrGfU-idT) [T59 vrt8]
Kd ([1]; tags: factor VIII free): 1.8 nM

ACGAACUGCCCUCAGCUAUUUCAUUUGCUGACGCACAGACGU (ssRNA, 2'-F C and U; 2'-OH A and G; 3' idT) [T36]
Kd [2]: 11 nM

ACGAACUGCCCUCAUUAUUGACGCACAGACGU (ssRNA, 2'-F C and U; 2'-OH A and G; 3' idT) [T70]
Kd [3]: 13 nM

ACGAACUGCCCUCUUUUUUGACGCACAGACGU (ssRNA, 2'-F C9,C10,C11,C22,G23,C24,U32; rest 2'-OMe; 3' idT) [T94 vrt6]
Kd [4, 7]: 42 nM

ACGAACUGCCCUCUUUCAUGACGCACAGACGU (ssRNA, 2'-F C and U; 2'-OH A and G; 3' idT) [T87]
Kd ([1]; tags: factor VIII free): 11 nM

ACGAACUGCCCUCGAUCGACGCACAGACGU (ssRNA, mAmCmGmAmAmCmUmGfCfCfCmUmCmGmAmUmCmGmAfCrGfCmAmCmAmGmAmCmGfU-idT) [T59 vrt19]
Kd ([5]; tags: factor VIII free): 5.5 nM

ACGAACUGCCCUCGAUCGACGCACAGACGU (ssRNA, mAmCmGmAmAmCfUrGfCfCfCmUmCmGmAmUmCmGmAfCrGfCrAmCmAmGmAmCmGfU-idT) [T59 vrt14]
Kd [3]: 1.7 nM

ACGAACUGCCCUCGAUCGACGCACAGACGU (ssRNA, rAfCmGmAmAmCfUrGfCfCfCfUmCmGmAmUmCmGrAfCrGfCrAmCmAmGmAmCrGfU-idT) [T59 vrt10]
Kd [3]: 0.4 nM

ACGAACUGCCCUCGAUCGACGCACAGACGU (ssRNA, rAmCrGmAmAmCfUrGfCfCfCfUmCmGmAmUmCmGrAfCrGfCrAmCmAmGmAfCmGfU-idT) [T59 vrt9]
Kd ([1]; tags: factor VIII free): 1 nM

ACGAACUGCCCUCUUUUUUUUGACGCACAGACGU (ssRNA, 2'-F C and U; 2'-OH A and G; 3' idT) [T95]
Kd [3]: 12 nM

B1: T86 vrt1 (ssRNA)
RNA: ACGAACUGCCCUCGUUUCAUCGACGCACAGACGU
modifications: 2'-F C2,U7,C9,C10,C11,U12,C24,C26,C32,U34; ribo A1,G3,G8,A23,G25,A27,G33; rest 2'-OMe; 3' idT
Kd [6, 7]: 0.9 nM

ACGAACUGCCCUCUAUUAUUUGACGCACAGACGU (ssRNA, 2'-F C9,C10,C11,C24,G25,C26,U34; rest 2'-OMe; 3' idT) [T90 vrt6]
Kd [6, 7]: 46 nM

ACGAACUGCCCUCUAUUAUUUGACGCACAGACGU (ssRNA, 2'-F C9,C10,C11,C24,G25,C26; rest 2'-OMe; 3' idT) [T90 vrt7]
Kd [6, 7]: 42 nM

ACGAACUGCCCUCGAUCGACGCACAGACGU (ssRNA, mAmCmGmAmAmCmUmGfCfCfCmUmCmGmAmUmCmGmAfCrGfCmAmCmAmGmAmCmGfUidT) [DTRI-006]
Kd ([6]; tags: factor VIII free): 7 nM

ACGAACUGCCCUCGAUCGACGCACAGACGU (ssRNA, mAmCmGmAmAmCfUrGfCfCfCfUmCmGmAmUmCmGrAfCrGfCrAmCmAmGmAmCmGfU-idT) [T59 vrt6]
Kd ([5]; tags: factor VIII free): 0.5 nM

ACGAACUGCCCUCGAUCGACGCACAGACGUACCCG (ssRNA, 2'-F C9,C10,C11,C20,G21,C22; rest 2'-OMe; 3' idT) [T82 vrt7]
Kd [4, 7]: 268 nM

ACGAACUGCCCUCGAUCGACGCACAGACGUUUUUU (ssRNA, rAfCrGmAmAmCfUrGfCfCfCfUmCmGmAmUmCmGrAfCrGfCrAmCmAmGmAfCrGfUmUmUmUmUmU-idT) [T79 vrt1]
Kd ([4]; tags: factor VIII free): 1.9 nM

ACGAACUGCCCUCGAUCGACGCACAGACGUUUUUU (ssRNA, mAmCmGmAmAmCmUmGfCfCfCmUmCmGmAmUmCmGmAfCrGfCmAmCmAmGmAmCmGfUmUmUmUmUmU-idT) [T79 vrt2]
Kd [3]: 24 nM

ACGAACUGCCCUCGUAUUAUUUCGACGCACAGACGU (ssRNA, 2'-F C9,C10,C11,C26,C28,U36; ribo G27; rest 2'-OMe; 3' idT) [T89 vrt2]
Kd [6, 7]: 12 nM

ACGAACUGCCCUCGUAUUAUUUCGACGCACAGACGU (ssRNA, 2'-F G8,C9,C10,C11,A25,C26,G27,C28,A29; rest 2'-OMe; 3' idT) [T89 vrt10]
Kd [1, 7]: 548 nM

ACGAACUGCCCUCUAUUUCAUUUGACGCACAGACGU (ssRNA, 2'-F C9,C10,C11,C26,C28; ribo G27; rest 2'-OMe; 3' idT) [T93 vrt4]
Kd [5, 7]: 5.7 nM

ACGAACUGCCCUCUAUUUCAUUUGACGCACAGACGU (ssRNA, 2'-F C9,C10,C11,C26,G27,C28,U36; rest 2'-OMe; 3' idT) [T93 vrt6]
Kd [5, 7]: 33 nM

ACGAACUGCCCUCUUAUGACGCACAGACGU (ssRNA, 2'-F C and U; 2'-OH A and G; 3' idT) [T68]
Kd ([5]; tags: factor VIII free): 16 nM
